Source: patent publication US11629367

Molecular target: Mouse IL-11 receptor alpha (Cat. No. MBS553276, MyBioSource, Inc.) (mouse) (UniProt Q64385)
Experiment: cell-based or functional assay

UniProt Q64385, sequence (Q64385 24-372): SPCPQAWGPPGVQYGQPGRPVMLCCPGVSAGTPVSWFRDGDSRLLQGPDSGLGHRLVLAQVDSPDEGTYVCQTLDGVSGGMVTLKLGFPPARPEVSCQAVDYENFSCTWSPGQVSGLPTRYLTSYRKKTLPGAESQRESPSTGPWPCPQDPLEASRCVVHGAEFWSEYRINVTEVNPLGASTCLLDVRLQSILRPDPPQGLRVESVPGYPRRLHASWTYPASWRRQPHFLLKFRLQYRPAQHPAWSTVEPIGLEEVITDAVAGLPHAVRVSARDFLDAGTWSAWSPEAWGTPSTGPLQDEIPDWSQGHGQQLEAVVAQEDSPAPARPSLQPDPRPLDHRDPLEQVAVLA

Reference standard of rhIL-11, derived from yeast (Hangzhou Jiuyuan Gene Engineering Company) (from UniProt P20809 23-199) (ligand)
EC50, 7TD1 cell proliferation assay (MTS, absorbance at 490 nM): 1.1 ng/mL

recombinant human IL-11 (rhIL-11) expressed in Pichia pastoris and purified by the described method (from UniProt P20809 22-199) (ligand)
EC50, 7TD1 cell proliferation assay (MTS, absorbance at 490 nM): 2.2 ng/mL
